# According to patent US11981731B2, “Targeting cytotoxic cells with chimeric receptors for adoptive immunotherapy” (Novartis AG, priority 2014, dated 2024):
# B1: M17: human anti-mesothelin scFv, SEQ ID NO: 246 (protein)
# scFv: EVQLVESGGGLVQPGRSLRLSCAASGFTFDDYAMHWVRQAPGKGLEWVSGISWNSGSTGYADSVKGRFTISRDNAKNSLYLQMNSLRAEDTALYYCAKDSSSWYGGGSAFDIWGQGTMVTVSSGGGGSGGGGSGGGGSSSELTQDPAVSVALGQTVRITCQGDSLRSYYASWYQQKPGQAPVLVIYGKNNRPSGIPDRFSGSSSGNTASLTITGAQAEDEADYYCNSRGSSGNHYVFGTGTKVTVL
# B2: KIR2DL3: wild-type KIR2DL3 inhibitory receptor co-expressed in T cells (SEQ ID NO: 345) (protein)
# chain: MSLMVVSMVCVGFFLLQGAWPHEGVHRKPSLLAHPGPLVKSEETVILQCWSDVRFQHFLLHREGKFKDTLHLIGEHHDGVSKANFSIGPMMQDLAGTYRCYGSVTHSPYQLSAPSDPLDIVITGLYEKPSLSAQPGPTVLAGESVTLSCSSRSSYDMYHLSREGEAHERRFSAGPKVNGTFQADFPLGPATHGGTYRCFGSFRDSPYEWSNSSDPLLVSVTGNPSNSWPSPTEPSSETGNPRHLHVLIGTSVVIILFILLLFFLLHRWCCNKKNAVVMDQEPAGNRTVNREDSDEQDPQEVTYAQLNHCVFTQRKITRPSQRPKTPPTDIIVYTELPNAEP
# B3: DAP12: T cells expressing DAP12 and dsRed; DAP12 adaptor molecule, SEQ ID NO: 368 (protein)
# chain: MGGLEPCSRFLLLPLLLAVSGLRPVQVQAQSDCSCSTVSPGVLAGIVMGDLVLTVLIALAVYFLGRLVPRGRGAAEAATRKQRITETESPYQELQGQRSDVYSDLNTQRPYYK
# B4: M16: human anti-mesothelin scFv, SEQ ID NO: 245 (protein)
# scFv: EVQLVESGGGLVQPGRSLRLSCAASGFTFDDYAMHWVRQAPGKGLEWVSGISWNSGSTGYADSVKGRFTISRDNAKNSLYLQMNSLRAEDTALYYCAKDSSSWYGGGSAFDIWGQGTMVTVSSGGGGSGGGGSGGGGSSSELTQEPAVSVALGQTVRITCQGDSLRSYYASWYQQKPGQAPVLVIFGRSRRPSGIPDRFSGSSSGNTASLIITGAQAEDEADYYCNSRDNTANHYVFGTGTKLTVL
# Experiments:
# [1] = test system: K562 cells engineered to express mesothelin; assay: Antigen-triggered cytokine secretion; format: cell-based, human; details: Example 14, T cells:targets 2:1, 24 hours, ELISA
# Experimental: Cytokine production of the huMeso-KIRS2-expressing CAR cells was also assessed. Primary human T cells were simulated, transduced with the huMes-KIRS2 and expanded as previously described. Following expansion, the transduced T cells were mixed with K562 (mesothelin-negative cells, empty bars) or K562 cells engineered to express mesothelin (black bars) at a ratio of 2:1. Cytokine concentrations (IFNγ and IL-2) were determined in supernatants following 24 hours of stimulation by ELISA for the indicated cytokines.
# [2] = test system: K562-meso-HLACw; assay: KIR2DL3 suppression of KIR-CAR cytotoxicity, 51Cr release against K562-meso-HLACw; format: cell-based, human; details: coexpressed with SS1-KIRS2/DAP12, HLA-Cw on the target cells
# Experimental: K562 cells (K562) or K562 cells expressing mesothelin (K562-meso) were transduced with the HLA-Cw3 allele followed by fluorescence activated cell sorting to obtain K562 cells expressing HLA-Cw with (K562-meso-HLACw) or without (K562-HLACw) expression of mesothelin. HLA-Cw3 expression was assessed by flow cytometry using an APC-conjugated monoclonal antibody that recognizes HLA-A, B and C alleles (clone W6/32).
# Primary human T cells were stimulated with CD3/28 microbeads followed by lentiviral transduction with SS1-KIRS2 and DAP12 (SS1-KIRS2) or mock transduced (NTD) in combination with wild-type KIR2DL3. The T cells were expanded until the end of log-phase growth. The surface expression of the mesothelin-specific CAR and KIR2DL3 was determined by staining with mesothelin-Fc followed by PE-conjugated goat-anti-human Fc and a monoclonal antibody to the KIR2DL3 ectodomain.
# T cell that were generated and characterized as described in FIG. 21 were mixed with 51-Cr labeled target K562 cells that were generated and characterized as described in FIG. 22. Cytotoxicity was determined by measuring the fraction of ^51Cr released into the supernatant at 4 hours compared target cells without effector cells.
# [3] = test system: mesothelioma-derived cells expressing mesothelin (EM-meso cells); assay: EM-meso subcutaneous xenograft in NSG mice, tumor volume by caliper; format: in vivo, mouse; details: 4 million T cells i.v. day 20
# Experimental: 20 days following tumor implantation, each animal was injected intravenously with 5×10^6 T cells that were stimulated with anti-CD3/anti-CD28 stimulator beads followed lentiviral transduction with a series of CD3ζ-based CAR with or without a costimulatory domain (SS1-ζ, SS1-BBζ and SS1-28ζ) or the mesothelin-specific KIR-based CARs, SS1-KIRS2 with DAP12. Mock transduced T cells (NTD) were used as a control. Tumor volume was measured by caliper at the indicated times (n=7 mice per group). […] The frequency of human CD45+ T cells was assessed at the end of the experiment by flow cytometry, and data are expressed as a percentage of total viable cells in the blood, spleen and tumor digest. […] The frequency of CD3+ human lymphocytes in tumors at day 30 (10 days following CAR T infusion) was assessed by flow cytometry. […] 4 million T cells expressing DAP12 and dsRed (DAP12), SS1-28z or SS1-KIRS2 and DAP12 (SS1-KIRS2) were injected intravenously on day 20, and tumor volume was assessed over time via caliper measurement. […] Antigen-specific cytotoxicity was assessed by coculturing with firefly luciferase expressing EM-meso cells or EMp cells (parental EM cells lacking mesothelin expression) at indicated E:T ratios for 18 hours. […]
# Animal models can also be used to measure activity of a CAR-expressing cell. […] Animals are assessed for tumor progression at weekly intervals. […]
molecule,measurement,setting,value
B1,IL-2 production,[1],produced IL-2
B2,effect on antigen specific cytotoxicity of co-expressed KIR CAR,[2],can suppress antigen specific cytotoxicity
B3,tumor eradication by DAP12-modified T cells,[3],require the mesothelin-specific KIR-based CAR for tumor eradication
B4,IL-2 production,[1],produced IL-2
